Data taken from the DeepSol protein solubility set.

Assay: soluble on expression in E. coli; label from the status in PepcDB or PDB records

| Sequence | soluble on expression in E. coli |
| --- | --- |
| MDREALLQAVKEARELAKPRNFTQSFEFIATLKEIDMRKPENRIKTEVVLPHGRGKEAKIAVIGTGDLAKQAEELGLTVIRKEEIEELGKNKRKLRKIAKAHDFFIAQADLMPLIGRYMGVILGPRGKMPKPVPANANIKPLVERLKKTVVINTRDKPYFQVLVGNEKMTDEQIVDNIEAVLNVVAKKYEKGLYHIKDAYVKLTMGPAVKVKKEKAKKK | soluble |
| MDRNFKLRQMFSDYLDNKNSNSTHTPPVRVHYPLIATMSPADKARFTVKKITEVEGEVLDAPLENAHPVFFAEPQFELRWYNKPDSLAGRFQTNAEAETTSKLAQRLLTLFLKTEMLESAFFKYDDIRAIRVFFMDDREMATDRLMAILDNILSVSMTKLGHFSDKMSVTVDYELRAFMSDQKKAKRLVLEAMLKYPEFIPDSWGGESAILKWKEMKEIDVRRREADIKEMAETERKEKEKVEKNKMEMTEKIKKKDEDEKAKKEKERIDKEEKIKKEVEEAEKKKKEEKEKRRKEVKKNREEQLSINPEMSRNDKKDVVEEKSCLDKGAKDAQKKKKQQDVVDKKKEKRKLKKTRTMEASRSREVSHEEHHQPPVLSTLATPSPVPSPSVPPTAPPSTPRKPMFGAVSQFLSGRKRREPSAEKIVEPPSKNSAAATKKTVRK | not soluble |
| MDRTTPWQQQPIRYSADLEKPSPREQADIEKIMAKLLKNNERAYDKYKHGLRDAHAKSHAILRGELIVNEGLPPELAQGLFAEPRTYPVIARLSSTSGVRRSDKTRGVRGLGLKVLGVQGEKILPDDSSTNQDFVMVTHEDFLFADAHAYAGLGMITASLLARLSDQALWLGSGLLDLVSKAGIKLPDNLMVFVAPNRPILGLEFFSSAPFRHGDHVAKYRFAPASENVKALSGQLLPRNPAPEQHRDMIAEFFADQTAEFDFSAQLCTDPVAMPIEDAGKNWDKSISPYVSVAKIVFGPQNPYSALRRAYGDDVLAFNSWRGLAEHRPLGSINRLKKTVYESSADYRHRVNRIDRHEPVDISELPDLEHHHHHH | soluble |
| MDRVESLANQIFEDYKDYGVDRKEIVEKLRKLLIEFRVPENEAVRTIRNYIIREYGAPATVRRERITKIEEIKEPNKWVTVKAKVIQLWESSSPSIAQVGLIGDETGYIRFLVWTKAKKQPVDEGKSYIFRNVVVDDYGGVLRLNVTKISEIEEIEEDVKVKPPEELSEDVEVVGALVAIQQNSGLIQRCSVEGCNRVIKMGKCPEHGKTKAKDDLRIKGVLDDGYRTYEVIINEEGVESLTGINLEKAKKIAEETLDRGAVLTELKKMLLGKYLRVVGTATPRYLIAKHVEFFRPDIRKEIEKVKALLEEV | not soluble |
| MDSALFKTIALIGKHKNPDIVIPLLSLAEYLTDRGISVVLDSLTAAHISNSRYPILTLEEIGKQADLAIVLGGDGTMLNIARALVPFSVPLIGINQGRLGFLTDLTADTMHETLNDMLAGQFVVENRMLLTVEVTRNGESVFKELAFNDVVLHRGISSGMIELEVHINGEYVYSLRSDGLIIATPTGSTAYALSSGGPILHPGLNLMTLVPICPHTLSNRPIVIGADATIEIKVHFTTEIKIYTDSHSWFDLSEHDRVFIQRCPETIKLLHPVHHSYYRMLREKLGWSGILQKNSRLEHHHHHH | not soluble |
| MDSEEPPNVRVACSGDIDEVVRLMHDAAAWMSAKGTPAWDVARIDRTFAETFVLRSELLVASCSDGIVGCCTLSAEDPEFWPDALKGEAAYLHKLAVRRTHAGRGVSSALIEACRHAARTQGCAKLRLDCHPNLRGLYERLGFTHVDTFNPGWDPTFIAERLELEI | not soluble |
| MDSENAVKTTYGEFNGKKPFAVMLLGTDTGALDRTEKRGNTDTIIVVVVNPKKKNYTMISIPRDTMADMVGDDSNDVQKINAAYSIGGAKMAMKTVSNLLNIPVKYYALVNMGGLMKLVDYVGGIYVTPPLTFTYSGFPFKKRVRQHLNGQAALAYSRMRYDDPQGDYGRQKRQREVITKLVQKLATADSLTNFSKIANNLSSNVKTNLSFQALKSILANYSDCTSSSDSDYLHGYSTYVNDAAYQIAPTSELQRISNKIRKLLGLKTATVSNRETELNTLNETAGFKFGSGETQNYTLEHHHHHH | soluble |
| MDSENKTSIAIGCKVCNKYKVTKLLGGGSYGCVHEVIELKTGDRYAMKSEYSSMKKPILLNELKVMKAIYTFSSQHVLKVRDMGVHGSTKFIIMQMLEKNMDEVFELLGGSMTLNTAVATSYQCLEGLEFMHWAGFLHRDIKPNNYCLDANSGQGLRTIYIIDYGICKRFVDNNNVIRQPRKITKFRGTLDFAPIVSHELREHSRGSDLES | not soluble |
| MDSIERKKTKPYNINEKEILDIVAAKGSYLSSISENLEEVPPHKESSSRAESKKTITDEEVKKYIEALLNNFSSNRRKPLHIDAQVYECISDIVWAVRRKDFTVSGVISRILVEHIKENAGMIKKITGRDYKLLQP | not soluble |
| MDSLNNGWFSELQADLWPGQSFSLKVKEVIHKEKSRFQDIQIVETETYGRCLILDGIIQCTARDEFSYQEMISFLPLCAHPNPKKVLIVGGGDGGVAREVVKHPLVEEVHQVEIDDRVVELSKQYLPAMACGFANEKLKLTIGDGFDYMKKHKNEFDVIITDSSDPIGPAVSLFQESYYELMKHALKDDGIVCSQGGSFWLDLDYIKKTMSGCKEHFAKVAYAVTSVPSYPCGHIGFVMGSLNKNQDFATPKLGKSEIDSIDLRYYSSEVHSAAFALPRWVQKHFYELEHHHHHH | not soluble |
| MDSPQYLFLDFEFTMPETKTNPDGFCPEIIEVGLVAVVDDQIIGQFSSYVKPLRFPQLTERCKSFLNITQEQIDRGMSFYELVSLLRQYDRDRPTTVMTWGSMDMKVLRENCQSARVEFPFTGEHRDLAMEYKRFFGNKNQTALRKAVQEYGNEAVGKAHCALDDAFTAYTIFRLVENDKKYLAKTKPPTIGERIDLSQLRKKFAL | not soluble |
| MDTESFKREFLPYHRKLYCVAYRLLENAADAEDLVQEAYLKLWDKREGLSVISNPEAFSVTLVKNMCFDLLRSGKYVLSRQSVELSAAQDVFQPDNLEAREGVRQIKDIIAHLPEQQQRIINMRDIKGCSYEEIEQVTGLNSINVRVLLSRARKKIREEFNKWNNYESRRN | not soluble |
| MDTIWELDFYSRPLVDENNKKIWELLVCDRQQQFQFSKTCAGAEANARWLAAALEEAMDQWRQQLGLAEGVQPQRVRFFRRAMSSIITRGGEAAGLVMVPSRRTFALYDWLRDRATNFYPTLPNYQADLATPPQLPPPAPQPLPPALQGDRWQLSGLPLGEIKTAAEWELPFGEVPPLPFLTLNDDTLLPGLIIYSQRALPLAGWLSGLEPASLSFEETPQPLLILETGASDRWILIRGRNPQIQKELAAFKDACTQSQGLHFIAVKEQPTQETLQGFWLLQQTPELLEHHHHHH | soluble |
| MDTQNLPDQIIPIFMSFDKNYALGASVSLYSLLSHASRHTSMIDFSPLNQSNKLLGANIVYKIHCLVKGVTLEQQNKLLKTIAPFKKFASLEFIHINSLDHSIESYLNKSCSKRYGGLLVLCRLLLASLFPNYSKIISIDADTVFLGDVASAYFALDNDPTKSLGMVRDTFSHLSFEAFCDFCKRACKNFKIDFSRFSPDELKRIHQGFNMGFLVAHLDRWRQDGFEKTALEFLKTRGKDLFYPEQCLVNMVFWERILELPIYYNCYSDFFKEHYPKNIIMLHFIKYKPWRSVSSLNGRLICYEAEASFWLANLFHTPFKNDFFKERLEMAKDQQMQSFKTHIRSQTIRNYLGFRVKNILKKVFKLSLEHHHHHH | soluble |
| MDTSSSCKAFLLDSALAVKWPRDKETAPRLPQHRGWNPGDAPQTSQGRGTGTPVGAETKTLPSTDVAQPPSDSDAVGPRSGFPPQPSLPLCRAPGQLGEKQLPSSTSDDRVKDEFSDLSEGDVLSEDENDKKQNAQSSDESFEPYPERKVSGKKSESKEAKKSEEPRIRKKPGPKPGWKKKLRCEREELPTIYKCPYQGCTAVYRGADGMKKHIKEHHEEVRERPCPHPGCNKVFMIDRYLQRHVKLIHTEVRNYICDECGQTFKQRKHLLVHQMRHSGAKPLQCEVCGFQCRQRASLKYHMTKHKAETELDFACDQCGRRFEKAHNLNVHMSMVHPLTQTQDKALPLEAEPPPGPPSPSVTTEGQAVKPEPT | soluble |
| MDVAGLTDCGLIRKSNQDAFYIDEKHQRFFIVADGMGGHAGGEEASRLAVDHIRQYLETHLEDLQHDPVTLLRQAFLAANHAIVEQQRQNSARADMGTTAVVILLDEKGDRAWCAHVGDSRIYRWRKDQLQQITSDHTWIAQAVQLGSLTIEQARQHPWRHVLSQCLGREDLSQIDIQPIDLEPGDRLLLCSDGLTEELTDDVISIYLSEPNVQKAAAALVDAAKTHGGRDNVTVVVISV | soluble |
